Assay: yeast display, Sf9 membrane polyspecificity reagent, FACS + sequencing; frameworks hold sequencing errors
Summary of the method: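 Polyreactivity labels are assigned by the sorting gate from which each nanobody was recovered. The gates were low and high (top ~1%), set on anti-HA fluorescence for expression and streptavidin fluorescence for reagent binding. Before sorting, galactose-induced (36–48 hours) yeast display cells were stained for 1 hour at 4 °C with 10% biotinylated, detergent-solubilized Sf9 membrane reagent.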

| Sequence | polyreactivity (PSR sort gate) |
| --- | --- |
| QVQLVESGGGLVQAGGSLRLSCAASGRTFPYYAMGWYRQAPGKERELVAVITSGASTYYADSVKGRFTISRDNAKNTVYLQMNSLKPEDTAVYYCNARYSWKYDYWGQGTQVTVSS | high polyreactivity |
| QVQLVESGGGLVQAGGSLRLSCAASGRTFPYYAMGWYRQATGKERELVAAITTNDGDTYYADSVKGRFTISRDNAKNTVYLQMNSLKPEDTAVYYCSADSGSTSEYEYWGQGTQVTVSS | low polyreactivity |
| QVQLVESGGGLVQAGGSLRLSCAASGRTFQGNTMGWYRQAPGKEREFVAAMSSRGGSTYYADSVKGRFTISRDNAKNTVYLQMNRLKPEDTAVYYCDARFSHGYDYWGQGTQVTVSS | high polyreactivity |
| QVQLVESGGGLVQAGGSLRLSCAASGRTFQGNTMGWYRQAPGKERELVAAITWRGTTTYYADSVKGRFTISRDNAKNTVYVQMNSLKPEDTAVYYCAAGHALHSGDEFGYWGQGTQVTVSS | low polyreactivity |
| QVQLVESGGGLVQAGGSLRLSCAASGRTFQGYAMGWYRQATGKERELVAAISRSGGRTYYADSVKGRFTISRDNAKNTVYLQMNSLKPEDTAVYYCATDAFRDYGYWGQGTQVTVSS | high polyreactivity |
| QVQLVESGGGLVQAGGSLRLSCAASGRTFQGYVMGWYRQAPRKERELVAAISRGTSTYYADSVKGRFTISRDNAKYTVYLQMNSLKPEDTAVYYCAADGERRHYWGQGTQVTVSS | low polyreactivity |
| QVQLVESGGGLVQAGGSLRLSCAASGRTFQLNAMGWYRQAPGKERELFAAISTRGGSTYYADSVKGRFTISRDNAKNTVYLQMNSLKPEDTAVYYCATDPSFSRGYKEGGGYDYWGQGTQVTVSS | high polyreactivity |
| QVQLVESGGGLVQAGGSLRLSCAASGRTFQRNAMGWYRQAPGKERELVAAISWRGGSTYYADSVKGRFTISRDNAKNTVYLQMNSLKPEDTAVYYCNTYPSQYLWYDYWGQGTQVTVSS | high polyreactivity |
| QVQLVESGGGLVQAGGSLRLSCAASGRTFQTNAMGWYRQAPGKERELVAAISWSGGRTYYADSVKGRFTISRDNAKNTVYLQMNSLKPEDTAVYYCAARQWYRYKVRFDYWGQGTLVTVSS | high polyreactivity |
| QVQLVESGGGLVQAGGSLRLSCAASGRTFQTYAMGWYRQAPGKERELVAAISKSGGGTYYADSVKGRFTISRDNAKNTVYLQMNSLKPEDTAVYYCATAGYHYRAWGGRYDYWGQGTQVTVSS | high polyreactivity |
| QVQLVESGGGLVQAGGSLRLSCAASGRTFQVNAMGWYREAPGKERELVAAISIRSGRTYYADSVKGRFTISRYNAKNTVYLQMNSLKPEDTAVYYCAAYRISVYGVGYWGQGTQVTVSS | high polyreactivity |
| QVQLVESGGGLVQAGGSLRLSCAASGRTFQVNAMGWYRQAPGKERELVAAISRRGGSTYYADSVKGRFTISRDNAKNTVYLQMNSLKPEDTAVYYCAATASTYYLWRYNYWGQGTQVSVSS | high polyreactivity |
| QVQLVESGGGLVQAGGSLRLSCAASGRTFQYNAMGWYRQAPGKERELVAAISSSGGSTYYADSVKGRFTISRDNAKNTVYLQMNSLKPEDTAVYYCNAYSQSWNFYGDGDYWGQGTQVTVSS | low polyreactivity |
| QVQLVESGGGLVQAGGSLRLSCAASGRTFQYYAMGWYRQAPGKERELVAAISWSGASTYYADSVKGRFTISRDNAKNTVYLQMNSLKPEDTAVYYCAVKAGGSRYGYWGQGTHVTVSS | high polyreactivity |
| QVQLVESGGGLVQAGGSLRLSCAASGRTFRANAMGWYRQAPGKERELVAAISKRGGNTYYADSVKGRFTISRDNAKNTVYLQMNSLKPEDTAVYYCAADFIGRDYDYWGQGTQVTVSS | high polyreactivity |
| QVQLVESGGGLVQAGGSLRLSCAASGRTFRANAMGWYRQAPGKERELVAAISQRGGNTYYADSVKGRFTISRDKAKNTVYIQMNSLKPEDTAVYYCAADITTYRRGRYEYEYWGQGTQVTVSS | high polyreactivity |
| QVQLVESGGGLVQAGGSLRLSCAASGRTFRAYVMGWYRQAPGKERELVAAITGDGGSTYYADSVKGRFTISRDNAKNTVYLQMNSLKPEDTAVYYCAAGYVTVYGYYEYWGQGTQVTVSS | high polyreactivity |
| QVQLVESGGGLVQAGGSLRLSCAASGRTFRDNPMGWYRHAPGKERELVAAISGRGSSTYYADSVKGRFTIARDNAKKTVYLQMNSLKPEDTAVYYCAALPASVRRPGWHDYWGQGTQVTVSS | high polyreactivity |
| QVQLVESGGGLVQAGGSLRLSCAASGRTFRDYAMGWYRQAPGKERELVAAINWSGGTTSYADSVKGRFTISRDNAKNTVYLQMNSLKPEDTAVYYCAVPYLYKYSRYDYWGQGTQVTVSS | high polyreactivity |
| QVQLVESGGGLVQAGGSLRLSCAASGRTFRDYVMGWYRQAPGKERELVAVISYRGSTYYADSVKGRFTISRDNAKNTVYLLMNSLKPEDTAVYYCAARFSLEGGYYWGQGTQVTVSS | low polyreactivity |
| QVQLVESGGGLVQAGGSLRLSCAASGRTFRFYAMGWNRQAPGKERELVAAINWTGGSTYYADSVKGRFTISRDNAKNTVYLQMNSLKPEDTAVYYCAKVQDYRFEYWGQGTQVTVSS | high polyreactivity |
| QVQLVESGGGLVQAGGSLRLSCAASGRTFRFYAMGWYRQAPGKERELVATIRSGASTYYADSVKGRFTISRDNAKNTVYLQMNSLKPEDTAVYYCAAGLYFPYVSVIVFRSYDYWGQGTQVTVSS | high polyreactivity |

| Sequence | polyreactivity (PSR sort gate) |
| --- | --- |
| QVQLVESGGGLVQAGGSLRLSCAASGRTFRFYTMGWYRQAPGKERELVADISWTSGRTYYADSVKGRFTISRDNAKNTVYLQMNSLKPEDTAVYYCAAYFFSRYSLYDYWGQGTQVTVSS | high polyreactivity |
| QVQLVESGGGLVQAGGSLRLSCAASGRTFRFYVMGWYRQAPGKERELVAVIRYRGGSTYYADSVKGRFTISRDNAKNTVYLHMNSLTPEDTAVYYCNADFLLAGNEYDYWGQGTQVTVSS | high polyreactivity |
| QVQLVESGGGLVQAGGSLRLSCAASGRTFRGNAMGWYRQAPGKERELVAAISRSGGTTYYADSVKGRFTISRDNAKNTVYLQMNSLKPEDTAVYYCNRGWATWHGPDDYWGQGTQVTVSS | high polyreactivity |
| QVQLVESGGGLVQAGGSLRLSCAASGRTFRGYALGWYRQAPGKERELVAAISGGTTNYADSVKGRFTISRDNAKNTVYLQMNSLKPVDTAVYYCAAAQRQYWRYRLGYEYGSWGQGTQVTVSS | low polyreactivity |
| QVQLVESGGGLVQAGGSLRLSCAASGRTFRGYAMGWYRQAPGKERELVAAITSGGSTNYADSVKGRFTISRDNAKNTVYLQMNSLKPEDTAVYYCNRDTSKYGLWRYIYDYWGQGTQVTVSS | low polyreactivity |
| QVQLVESGGGLVQAGGSLRLSCAASGRTFRHNAMGWYRQAPGKERELVATINRGGNTYYADSVKGRFTISRDNAKNTVYLQMNSLKPEDTAVYYCAARRSFLFDEGNYWGQGTQVTVSS | low polyreactivity |
| QVQLVESGGGLVQAGGSLRLSCAASGRTFRIYATGWYRQAPGKERELVAAITRGGSTYYADSVKGRFTISRDNAKNTVYLQMNSLKPEDTAVYYCNAAPYYWGYDYWGQGTQVTVSS | high polyreactivity |
| QVQLVESGGGLVQAGGSLRLSCAASGRTFRKNVMGWYRQAPGKEREFVASISSSGSSTYYADSVKGRFTISRDYAKNTVYLQMNSLKPEDTAVYYCAARSVYATKRKYDYWGQGTQVTVSS | high polyreactivity |
| QVQLVESGGGLVQAGGSLRLSCAASGRTFRKYAMGWYRPAPGKERELVAAISWSGGSTRYADYVKGRFTISRDNEKNTVYLQMNSLKPEDTAVYYCNAVRRYRSTHPSYHTFNYWGQGTQVTVSS | high polyreactivity |
| QVQLVESGGGLVQAGGSLRLSCAASGRTFRLNAMGWYRQAPGKERELVAGIRVRAGTTYYADSVKGRFTLSRDNAKNTVYLQMNSLKPEDTAVYYCAAESYSRSRKYDYWGQGTQVTVSS | high polyreactivity |
| QVQLVESGGGLVQAGGSLRLSCAASGRTFRLYAMGWSRQAPGKERELVAAITRGGRTNYADSVKGRFTISRDNAKTTVYLQMTSLKPEDTAVYYCAARYVERHTDYYYWGQGTQVTVSS | low polyreactivity |
| QVQLVESGGGLVQAGGSLRLSCAASGRTFRLYAMGWYRQAPGKERELVAAISGSGGSTYYADSVKGRFTISRDNAKNTVYLQMNSLKPEDTAVYYCATAVHTAILNYWGQGTQVTVSS | low polyreactivity |
| QVQLVESGGGLVQAGGSLRLSCAASGRTFRNYAMGWYRPAPGKERELDAGITDSGGSTFYADSVKGRFTISRDNAKNTVYLQMNSLKPADTAVYYCAAVYVPYYWLGRSRGLDYWGQGTQVTVSS | high polyreactivity |
| QVQLVESGGGLVQAGGSLRLSCAASGRTFRNYAMGWYRQAPGKERELVAAINSGGSTNYADSVKGRFTISRDNAKNTVYLQMNSLKPEDTAVYYCAKRRTYPGKGRFNYWGQGTQVTVSS | low polyreactivity |
| QVQLVESGGGLVQAGGSLRLSCAASGRTFRPNAMRWYRQAPGKERELVASITRRGGTTYYADSVKGRFTISRDNAKNTVYLQMNSLKPEDTAVYYCNAPPGYSSTRNGYWGQGTQVTVSS | high polyreactivity |
| QVQLVESGGGLVQAGGSLRLSCAASGRTFRPYAMGWYRQAPGKERELVAAIRGSTGSTYADSVKGRFTISRDNAKNTVYLQMNSLKPEDTAVYSCATYRYYSGLGGGYWGQGTQVTVSS | high polyreactivity |
| QVQLVESGGGLVQAGGSLRLSCAASGRTFRPYAMGWYRQAPGKERELVAAISYRGGITNYADSVKGRFTISRDNAKNTVYLQMNSLKPEDTAVYYCNRYAIWVSRYSDLDYWGQGTQVTVSS | low polyreactivity |
| QVQLVESGGGLVQAGGSLRLSCAASGRTFRQYAMGWYRQAPGKERELVAAIRTNGGRTYYADSVKGRFTISRDNAKNTVYLQMNSLKPEDTAVYYCAVYAVVQGVLFDYWGQGTQVTVSS | high polyreactivity |
| QVQLVESGGGLVQAGGSLRLSCAASGRTFRQYAMGWYRQAPGKERELVARIRWRGGTTYYADSVKGRFTISRDNAKNTVYLQMISLKPEDTAVYYCAADKYGTEYDYWGQGTQVTVSS | high polyreactivity |
| QVQLVESGGGLVQAGGSLRLSCAASGRTFRRYAIGWYRQAPGKERELVATISSGGSTNYADSVKGRFTISRDNAKNTVYLQMNSLKPEDTAVYYCATPQTRTYDYWGQGTQGTVSS | high polyreactivity |
| QVQLVESGGGLVQAGGSLRLSCAASGRTFRRYAMGWYRQAPGKERELVAAISRGANTNYADSVKGRFTISRDNAKNTVYLQMNSLKPEDTAVYYCNAKQAGYYFAFGYWGQGTQVTVSS | high polyreactivity |

Reference: the nanobody polyreactivity screen of Harvey et al. (2022)
